Assay in all cases: SPR
Assay [1] addresses Hinge region glycopeptide (HR-GalNAc) (human).
The target in assay [2] is monomeric IgA1Mce myeloma protein (human).
Assay [3] addresses monomeric IgA1κ myeloma protein (human).
For assay [4], the target named is monomeric IgA1λ myeloma protein (human).
Assay [5] concerns the target polymeric IgA1Ale myeloma protein (human).
The target of assay [6] is polymeric IgA1Mce myeloma protein (human).
Assay [7] deals with polymeric IgA1κ myeloma protein (human).
Assay [8] has as its target polymeric IgA1λ myeloma protein (human).
The target of assay [9] is IgA1-Fc Fc (Homo sapiens) (UniProt P01876). To be noted: cited from earlier work.
IgA1-Fc Fc (Homo sapiens), sequence (P01876 120-340): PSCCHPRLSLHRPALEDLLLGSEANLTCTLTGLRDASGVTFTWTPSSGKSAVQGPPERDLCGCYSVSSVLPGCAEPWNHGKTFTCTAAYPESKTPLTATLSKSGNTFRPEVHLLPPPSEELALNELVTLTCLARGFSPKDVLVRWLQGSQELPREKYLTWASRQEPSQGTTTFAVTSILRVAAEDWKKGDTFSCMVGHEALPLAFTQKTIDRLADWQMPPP

FcαRI, sequence (P24071 22-287): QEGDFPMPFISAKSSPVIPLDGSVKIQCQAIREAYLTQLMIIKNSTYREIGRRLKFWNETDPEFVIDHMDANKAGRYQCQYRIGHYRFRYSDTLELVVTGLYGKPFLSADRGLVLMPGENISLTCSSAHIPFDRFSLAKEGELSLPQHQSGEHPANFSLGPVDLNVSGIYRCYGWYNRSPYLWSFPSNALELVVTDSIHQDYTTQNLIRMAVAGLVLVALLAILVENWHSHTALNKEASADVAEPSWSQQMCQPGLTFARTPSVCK

As to “Helix aspersa agglutinin (natural protein)”, the KD1 (two-site model, apparent) in [1] was found to be 0.11 µM; in assay [2], 7.2 µM; in [3], 1.8 µM; in [4], 6.2 µM; in assay [5], 1 µM; in assay [6], 5.6 µM. Besides, the KD1 (two-site model, apparent) turned out to be 1.7 µM in [7] and 3 µM in [8]. For the same substance, the KD2 (two-site model, apparent) is 7 µM in assay [1]; 76 µM in assay [2]; 8 µM in assay [3]; 73 µM in assay [4]; 14 µM in assay [5]; 70 µM in assay [6]. In addition, the KD2 (two-site model, apparent) in [7] was 25 µM; in [8] it was 28 µM.

Regarding FcαRI (from UniProt P24071), in assay [9], the Kd is 9 nM.

As to “Helix pomatia agglutinin (natural protein)”, the KD1 (two-site model, apparent) in assay [1] came out at 0.045 µM; in assay [2], 2.3 µM; in assay [3] it was 0.76 µM; in assay [4], 1.8 µM; in assay [5], 0.58 µM; in [6], 1.1 µM. Moreover, the KD1 (two-site model, apparent) in assay [7] was determined as 0.65 µM; in [8], 1.1 µM. The KD2 (two-site model, apparent) in [1] was found to be 2.3 µM; in assay [2], 24 µM; in [3], 10 µM; in [4], 21 µM; in assay [5] it was 6 µM; in assay [6], 7 µM. The KD2 (two-site model, apparent) in [7] is 11 µM; in [8] it was 5 µM.

These data come from paper PMC3721678.
